Experimental findings from patent US20110229981A1 are described below.

For assay [1], the target named is CD31 solubilized from Jurkat T cell lysates and captured on PECAM 1.2-coupled CBA beads (human) (UniProt P16284). Put plainly: co-capture on PECAM 1.2 CBA beads from Jurkat lysate, anti-CD3-FITC, flow cytometry; positive pY control (Na3VO4/H2O2).
Assay [2] shares this target. Put plainly: co-capture on PECAM 1.2 CBA beads from Jurkat lysate, anti-CD3-FITC, flow cytometry; antibody CD31 treatment (CD3 + CD31 crosslink). Background: In flow cytometry, cells or beads pass a laser one at a time.
Assay [3] shares this target. Kind of assay: co-capture on PECAM 1.2 CBA beads from Jurkat lysate, anti-CD3-FITC, flow cytometry; T-cell activation (CD3 crosslink).
Assay [4] has the same target. Kind of assay: co-capture on PECAM 1.2 CBA beads from Jurkat lysate, anti-CD3-FITC, flow cytometry; negative control (unstimulated).
Assay [5] has the same target. Kind of assay: co-capture on PECAM 1.2 CBA beads from Jurkat lysate, anti-CD28-PE, flow cytometry; positive pY control (Na3VO4/H2O2).
For assay [6] the target is unchanged. Kind of assay: co-capture on PECAM 1.2 CBA beads from Jurkat lysate, anti-CD28-PE, flow cytometry; antibody CD31 treatment (CD3 + CD31 crosslink).
The target is the same in assay [7]. Put plainly: co-capture on PECAM 1.2 CBA beads from Jurkat lysate, anti-CD28-PE, flow cytometry; negative control (unstimulated).
For assay [8] the target is unchanged. Kind of assay: co-capture on PECAM 1.2 CBA beads from Jurkat lysate, anti-CD28-PE, flow cytometry; T-cell activation (CD3 crosslink).
The target is the same in assay [9]. Put plainly: co-capture on PECAM 1.2 CBA beads from Jurkat lysate, anti-CD28-PE, flow cytometry; peptide CD31 treatment (CD3 crosslink + CD31 peptide).
For assay [10] the target is unchanged. Kind of assay: co-capture on PECAM 1.2 CBA beads from Jurkat lysate, anti-SHP2-PE, flow cytometry; peptide CD31 treatment (CD3 crosslink + CD31 peptide).
For assay [11] the target is unchanged. Put plainly: co-capture on PECAM 1.2 CBA beads; peptide CD31 treatment against CD3 crosslink conditions.
The target is the same in assay [12]. Kind of assay: co-capture on PECAM 1.2 CBA beads; antibody CD31 treatment against CD3 crosslink conditions.
For assay [13] the target is unchanged. Put plainly: co-capture on PECAM 1.2 CBA beads from Jurkat lysate, anti-SHP2-PE, flow cytometry; antibody CD31 treatment (CD3 + CD31 crosslink).
For assay [14] the target is unchanged. Put plainly: co-capture on PECAM 1.2 CBA beads from Jurkat lysate, anti-SHP2-PE, flow cytometry; T-cell activation (CD3 crosslink).
For assay [15] the target is unchanged. Kind of assay: co-capture on PECAM 1.2 CBA beads from Jurkat lysate, anti-SHP2-PE, flow cytometry; negative control (unstimulated).
Assay [16] shares this target. Kind of assay: co-capture on PECAM 1.2 CBA beads from Jurkat lysate, anti-SHP2-PE, flow cytometry; positive pY control (Na3VO4/H2O2).

Regarding CD3 (receptor), the MFI CD3 in assay [1] amounted to 354 MFI; in assay [2] it was 2420 MFI; in assay [3], 17900 MFI; in [4], 197 MFI.
For the substance “CD28 (from UniProt P10747 19-220) (receptor)”, the MFI CD28 in [5] was 3930 MFI; in [6], 17100 MFI; in [7], 8160 MFI; in assay [8], 25200 MFI; in [9], 24300 MFI.
For the substance “SHP-2 (from UniProt Q06124 2-593) (enzyme)”, the MFI SHP-2 in assay [10] stood at 185 MFI; in [13], 149 MFI; in [14], 90 MFI; in assay [15], 165 MFI; in assay [16] it was 193 MFI. Further, the results for the increase of the amount of SHP-2 associated to CD31 in assay [11] and in assay [12] were 100% and 50%, respectively.
